Measurements published in patent US8916370B2, “Isoprene synthase variants for improved microbial production of isoprene” (Danisco US Inc., priority 2008, dated 2014).
Values belong to the molecule of their own block, whether it stands above or below them.

Assays:
[1] = system: E. coli strain MCM531 (BL21 PL.2-mKKDyI); assay: Growth inhibition of MCM531 by mevalonic acid; type: cell-based, Escherichia coli; conditions: TM3 medium with 1% glucose and yeast extract; 0, 1, 5, 10, 15 or 20 mM MVA; OD600, quadruplicate
Procedure: An overnight culture of MCM531 (see strain description) was back-diluted to an OD600 of 0.05 (this corresponds to an OD600 of approx 0.005 in a 96-well plate reader) (SpectraMax M2, Molecular Devices). The diluted culture was then aliquotted into separate wells in a 96-well deep-well plate into standard TM3 medium (13.6 g K2PO4, 13.6 g KH2PO4, 2.0 g MgSO4*7H2O) supplemented with 1% glucose and 0.8 g/L Biospringer yeast extract (1% Yeast extract final)) with 0, 1, 5, 10, 15 or 20 mM MVA added. […] Each MVA concentration was assayed in quadruplicate, error bars were negligible.

[2] = target: P. alba isoprene synthase (IspS), full length, C-terminally TEV and His-tagged (MD09-165), FL(+)TEV, SEQ ID NO:134 (Populus alba, UniProt Q50L36); conditions: DMAPP 0.625 to 40 mM, 50 mM MgCl2, pH 8, 30° C., 15 min; ± S.D., triplicate
Procedure: (§1) The relative specific activity was determined and the kinetics of “N-terminally truncated” P. alba isoprene synthases were examined compared to “Full length” P. alba isoprene synthases. Four strains expressing four different constructs were used in this analysis: BL21(λDE3) pLysS with P. alba pET24a; MD09-173; MD09-165; and MD09-167 (Strains described above in detail). These strains express “full length” P. alba IspS, “truncated” P. alba IspS (the MEA truncation), “full length” C-terminally TEV and His-tagged P. alba IspS, and “truncated” C-terminally TEV and His-tagged P. alba IspS, respectively. In the experiments described below, “truncated” refers specifically to the MEA variant of P. alba IspS.
(§2) All strains were inoculated into LB containing 30 mg/L chloramphenicol(Cm) and 50 mg/L kanamycin and grown overnight in 2 mL culture tubes at 37° C. The overnight cultures were diluted 1:100 in 25 mL of LB broth containing 30 mg/L chloramphenicol(Cm) and 50 mg/L kanamycin the following morning and grown at 37° C. until OD˜0.5. Each strain was grown in triplicate. The cultures were then induced with 400 uM IPTG and incubated at 30° C. for 4 hours.

[3] = target: P. alba isoprene synthase (IspS), truncated MEA variant, C-terminally TEV and His-tagged (MD09-167), MEA(+)TEV, SEQ ID NO:132 (Populus alba, UniProt Q50L36); conditions: DMAPP 0.625 to 40 mM, 50 mM MgCl2, pH 8, 30° C., 15 min; ± S.D., triplicate (2.5 mM DMAPP in duplicate)
Procedure: as §1, §2

[4] = substrate: CC(C)=CCOP(=O)(O)OP(=O)(O)O; assay: purified protein, by the assay type; conditions: other: DMAPP 0.625 to 40 mM, 50 mM MgCl2, pH 8, 30° C., 15 min, ± S.D., triplicate

P. alba isoprene synthase (IspS), full length, C-terminally TEV and His-tagged (MD09-165), FL(+)TEV, SEQ ID NO:134, sequence (Q50L36 with tags, fused parts or gaps): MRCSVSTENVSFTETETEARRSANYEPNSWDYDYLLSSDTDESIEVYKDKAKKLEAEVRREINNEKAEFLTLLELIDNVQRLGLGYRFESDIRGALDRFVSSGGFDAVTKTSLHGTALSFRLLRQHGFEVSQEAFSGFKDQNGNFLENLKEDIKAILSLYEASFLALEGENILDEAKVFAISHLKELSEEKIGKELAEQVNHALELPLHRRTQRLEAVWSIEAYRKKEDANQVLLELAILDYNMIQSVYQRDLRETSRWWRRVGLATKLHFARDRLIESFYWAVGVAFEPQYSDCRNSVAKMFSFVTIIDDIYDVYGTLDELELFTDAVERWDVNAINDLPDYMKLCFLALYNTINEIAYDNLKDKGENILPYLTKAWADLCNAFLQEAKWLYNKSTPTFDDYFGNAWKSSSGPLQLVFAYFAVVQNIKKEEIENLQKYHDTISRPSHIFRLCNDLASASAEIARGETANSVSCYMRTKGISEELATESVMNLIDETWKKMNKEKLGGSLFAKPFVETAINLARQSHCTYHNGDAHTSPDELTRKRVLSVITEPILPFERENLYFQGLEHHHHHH
P. alba isoprene synthase (IspS), truncated MEA variant, C-terminally TEV and His-tagged (MD09-167), MEA(+)TEV, SEQ ID NO:132, sequence (Q50L36 with tags, fused parts or gaps): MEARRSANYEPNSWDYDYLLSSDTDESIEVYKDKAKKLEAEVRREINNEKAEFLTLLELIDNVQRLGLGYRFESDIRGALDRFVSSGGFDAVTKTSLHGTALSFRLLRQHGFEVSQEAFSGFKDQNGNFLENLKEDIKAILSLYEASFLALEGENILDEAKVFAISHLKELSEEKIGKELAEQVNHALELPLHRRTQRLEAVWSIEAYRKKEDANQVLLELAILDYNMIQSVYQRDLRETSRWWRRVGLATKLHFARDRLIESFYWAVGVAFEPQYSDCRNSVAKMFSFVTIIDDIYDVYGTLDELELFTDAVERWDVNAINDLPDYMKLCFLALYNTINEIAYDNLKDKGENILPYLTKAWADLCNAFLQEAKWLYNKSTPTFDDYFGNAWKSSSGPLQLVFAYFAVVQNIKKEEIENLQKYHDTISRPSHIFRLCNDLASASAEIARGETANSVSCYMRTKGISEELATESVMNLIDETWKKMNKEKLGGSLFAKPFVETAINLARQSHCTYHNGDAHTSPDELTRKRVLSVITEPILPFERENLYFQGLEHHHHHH

Molecule: C[C@@](O)(CCO)CC(=O)O [MVA, Mevalonic Acid]
concentration at which growth was severely inhibited [1]: ≥ 5 mM

KM [2]: 2.4 ± 0.5 mM | KM [3]: 2 ± 1 mM
Molecule: CC(C)=CCOP(=O)(O)OP(=O)(O)O [DMAPP, 3,3-dimethylallyl pyrophosphate]

B1: P. alba isoprene synthase (IspS), N-terminally truncated MEA variant, untagged (MD09-173, pDu39), SEQ ID NO:122 (Populus alba) (protein)
chain: MEARRSANYEPNSWDYDYLLSSDTDESIEVYKDKAKKLEAEVRREINNEKAEFLTLLELIDNVQRLGLGYRFESDIRGALDRFVSSGGFDAVTKTSLHGTALSFRLLRQHGFEVSQEAFSGFKDQNGNFLENLKEDIKAILSLYEASFLALEGENILDEAKVFAISHLKELSEEKIGKELAEQVNHALELPLHRRTQRLEAVWSIEAYRKKEDANQVLLELAILDYNMIQSVYQRDLRETSRWWRRVGLATKLHFARDRLIESFYWAVGVAFEPQYSDCRNSVAKMFSFVTIIDDIYDVYGTLDELELFTDAVERWDVNAINDLPDYMKLCFLALYNTINEIAYDNLKDKGENILPYLTKAWADLCNAFLQEAKWLYNKSTPTFDDYFGNAWKSSSGPLQLVFAYFAVVQNIKKEEIENLQKYHDTISRPSHIFRLCNDLASASAEIARGETANSVSCYMRTKGISEELATESVMNLIDETWKKMNKEKLGGSLFAKPFVETAINLARQSHCTYHNGDAHTSPDELTRKRVLSVITEPILPFER
Km [4]: 1.8 ± 0.2 mM | kcat [4]: 1.5 s⁻¹

B2: P. alba isoprene synthase (IspS), full length, untagged, SEQ ID NO:120 (Populus alba) (protein)
chain: MRCSVSTENVSFTETETEARRSANYEPNSWDYDYLLSSDTDESIEVYKDKAKKLEAEVRREINNEKAEFLTLLELIDNVQRLGLGYRFESDIRGALDRFVSSGGFDAVTKTSLHGTALSFRLLRQHGFEVSQEAFSGFKDQNGNFLENLKEDIKAILSLYEASFLALEGENILDEAKVFAISHLKELSEEKIGKELAEQVNHALELPLHRRTQRLEAVWSIEAYRKKEDANQVLLELAILDYNMIQSVYQRDLRETSRWWRRVGLATKLHFARDRLIESFYWAVGVAFEPQYSDCRNSVAKMFSFVTIIDDIYDVYGTLDELELFTDAVERWDVNAINDLPDYMKLCFLALYNTINEIAYDNLKDKGENILPYLTKAWADLCNAFLQEAKWLYNKSTPTFDDYFGNAWKSSSGPLQLVFAYFAVVQNIKKEEIENLQKYHDTISRPSHIFRLCNDLASASAEIARGETANSVSCYMRTKGISEELATESVMNLIDETWKKMNKEKLGGSLFAKPFVETAINLARQSHCTYHNGDAHTSPDELTRKRVLSVITEPILPFER
Km [4]: 2.4 ± 0.3 mM | kcat [4]: 0.72 s⁻¹
